# B1: CPEB3 Ribozyme (parent)
# chain: GGGGGCCACAGCAGAAGCGUUCACGUCGCGGCCCCUGUCAGAUUCUGGUGAAUCUGCGAAUUCUGCUGU
# Variants of: B1
# Experiment: self-cleavage, relative activity (ratio to wild type); higher = more cleavage; co-transcriptional
row,Variant,self-cleavage
1,G11A U38G,0.142
2,G11A U44C,0.528
3,G11A U44G,0.76
4,G11A U46A,0.932
5,G11A U46C,0.91
6,G11A U46G,0.93
7,G11A U49A,0.926
8,G11A U49G,0.965
9,G11A U53C,0.352
10,G11A U53G,0.622
11,G11A U55A,0.348
12,G11A U55G,0.317
13,G11A U61A,0.452
14,G11A U61C,0.268
15,G11A U61G,0.392
16,G11A U62A,0.537
17,G11A U62C,0.391
18,G11A U64A,0.655
19,G11A U64C,0.513
20,G11A U64G,0.661
21,G11A U67C,0.996
22,G11A U67G,0.98
23,G11A U69A,0.973
24,G11A U69G,1.01

row,Variant,self-cleavage
1,G11C,0.872
2,G11C A15C,0.497
3,G11C A15U,0.188
4,G11C A16G,0.471
5,G11C A23U,0.798
6,G11C A40C,0.179
7,G11C A40G,0.643
8,G11C A40U,0.26
9,G11C A42G,0.51
10,G11C A42U,0.41
11,G11C A51C,0.624
12,G11C A51G,0.73
13,G11C A51U,0.621
14,G11C A52C,0.551
15,G11C A52G,0.838
16,G11C A52U,0.628
17,G11C A59C,0.324
18,G11C A59U,0.36
19,G11C A60G,0.434
20,G11C A60U,0.243
21,G11C C12A,0.653
22,G11C C18A,0.0969
23,G11C C18U,0.246
24,G11C C22A,0.177

row,Variant,self-cleavage
1,G11C C22U,0.143
2,G11C C24A,0.321
3,G11C C24U,0.334
4,G11C C27A,0.177
5,G11C C27U,0.0897
6,G11C C29A,0.181
7,G11C C29G,0.139
8,G11C C29U,0.12
9,G11C C32A,0.601
10,G11C C32G,0.17
11,G11C C32U,0.82
12,G11C C33G,0.507
13,G11C C34A,0.615
14,G11C C34G,0.578
15,G11C C34U,0.901
16,G11C C35G,0.209
17,G11C C39A,0.257
18,G11C C39G,0.408
19,G11C C45A,0.757
20,G11C C45U,0.804
21,G11C C54G,0.261
22,G11C C54U,0.618
23,G11C C57G,0.284
24,G11C C57U,0.238

row,Variant,self-cleavage
1,G11C C63A,0.275
2,G11C C63G,0.299
3,G11C C66A,0.844
4,G11C G14A,0.0859
5,G11C G14C,0.0758
6,G11C G14U,0.172
7,G11C G17C,0.143
8,G11C G17U,0.144
9,G11C G19C,0.145
10,G11C G25A,0.149
11,G11C G25C,0.177
12,G11C G28A,0.0877
13,G11C G28C,0.137
14,G11C G28U,0.137
15,G11C G30A,0.522
16,G11C G30C,0.435
17,G11C G31A,0.693
18,G11C G37A,0.217
19,G11C G37C,0.103
20,G11C G41A,0.209
21,G11C G47A,0.907
22,G11C G47C,0.896
23,G11C G47U,0.916
24,G11C G48A,0.921

row,Variant,self-cleavage
1,G11C G48C,0.963
2,G11C G50A,0.826
3,G11C G50U,0.867
4,G11C G56A,0.564
5,G11C G56U,0.359
6,G11C G58A,0.82
7,G11C G65C,0.409
8,G11C G65U,0.53
9,G11C G68A,0.907
10,G11C G68C,0.823
11,G11C U20A,0.115
12,G11C U20C,0.158
13,G11C U21C,0.431
14,G11C U21G,0.199
15,G11C U26A,0.387
16,G11C U26C,0.729
17,G11C U26G,0.417
18,G11C U36A,0.0623
19,G11C U36C,0.62
20,G11C U36G,0.18
21,G11C U38A,0.729
22,G11C U38G,0.113
23,G11C U43A,0.357
24,G11C U43C,0.571

row,Variant,self-cleavage
1,G11C U44A,0.636
2,G11C U46A,0.866
3,G11C U46C,0.787
4,G11C U46G,0.849
5,G11C U49A,0.882
6,G11C U53A,0.381
7,G11C U53C,0.28
8,G11C U55C,0.243
9,G11C U61A,0.424
10,G11C U61G,0.383
11,G11C U62A,0.409
12,G11C U62C,0.402
13,G11C U62G,0.251
14,G11C U64A,0.385
15,G11C U64C,0.424
16,G11C U67A,0.897
17,G11C U67C,0.92
18,G11C U67G,0.93
19,G11U,0.905
20,G11U A13C,0.146
21,G11U A13G,0.527
22,G11U A13U,0.184
23,G11U A15U,0.295
24,G11U A16C,0.101

row,Variant,self-cleavage
1,G11U A16U,0.48
2,G11U A23C,0.685
3,G11U A23G,0.651
4,G11U A23U,0.945
5,G11U A40C,0.213
6,G11U A40G,0.668
7,G11U A42C,0.342
8,G11U A42G,0.476
9,G11U A51G,0.921
10,G11U A51U,0.785
11,G11U A52G,0.901
12,G11U A59G,0.901
13,G11U C12A,0.549
14,G11U C12G,0.577
15,G11U C12U,0.44
16,G11U C18A,0.0522
17,G11U C18G,0.0807
18,G11U C18U,0.372
19,G11U C22A,0.129
20,G11U C22G,0.112
21,G11U C22U,0.179
22,G11U C24G,0.177
23,G11U C24U,0.422
24,G11U C27A,0.16

row,Variant,self-cleavage
1,G11U C27G,0.134
2,G11U C27U,0.148
3,G11U C29A,0.202
4,G11U C29G,0.149
5,G11U C29U,0.142
6,G11U C32G,0.295
7,G11U C32U,0.854
8,G11U C33A,0.765
9,G11U C33G,0.619
10,G11U C34G,0.635
11,G11U C34U,0.915
12,G11U C35G,0.341
13,G11U C35U,0.815
14,G11U C39A,0.36
15,G11U C39G,0.536
16,G11U C39U,0.527
17,G11U C45A,0.732
18,G11U C45U,0.893
19,G11U C57A,0.31
20,G11U C57G,0.204
21,G11U C57U,0.215
22,G11U C63G,0.231
23,G11U C63U,0.498
24,G11U C66A,0.918

row,Variant,self-cleavage
1,G11U C66G,0.949
2,G11U C66U,0.955
3,G11U G14C,0.161
4,G11U G14U,0.144
5,G11U G17A,0.141
6,G11U G17C,0.129
7,G11U G17U,0.148
8,G11U G19A,0.115
9,G11U G19C,0.135
10,G11U G19U,0.118
11,G11U G25A,0.141
12,G11U G25U,0.136
13,G11U G28C,0.116
14,G11U G28U,0.192
15,G11U G30A,0.589
16,G11U G30C,0.455
17,G11U G31C,0.138
18,G11U G31U,0.499
19,G11U G37A,0.145
20,G11U G37C,0.213
21,G11U G37U,0.165
22,G11U G41A,0.217
23,G11U G41U,0.359
24,G11U G47A,0.897

row,Variant,self-cleavage
1,G11U G47C,0.954
2,G11U G48C,0.878
3,G11U G50C,0.797
4,G11U G50U,0.916
5,G11U G56A,0.701
6,G11U G56C,0.367
7,G11U G56U,0.404
8,G11U G58A,0.846
9,G11U G58C,0.857
10,G11U G58U,0.891
11,G11U G65C,0.574
12,G11U G65U,0.68
13,G11U G68C,0.943
14,G11U G68U,0.856
15,G11U U20A,0.119
16,G11U U20C,0.131
17,G11U U20G,0.121
18,G11U U21A,0.895
19,G11U U26A,0.552
20,G11U U26C,0.712
21,G11U U36C,0.59
22,G11U U36G,0.167
23,G11U U38C,0.756
24,G11U U43A,0.392

row,Variant,self-cleavage
1,G11U U43G,0.302
2,G11U U44A,0.677
3,G11U U44C,0.539
4,G11U U44G,0.734
5,G11U U46A,0.864
6,G11U U46C,0.79
7,G11U U46G,0.901
8,G11U U49A,0.941
9,G11U U49C,0.847
10,G11U U49G,0.98
11,G11U U53C,0.329
12,G11U U53G,0.487
13,G11U U55G,0.225
14,G11U U61A,0.412
15,G11U U61G,0.348
16,G11U U62A,0.38
17,G11U U62C,0.365
18,G11U U62G,0.381
19,G11U U64A,0.467
20,G11U U67A,0.913
21,G11U U67C,0.96
22,G11U U67G,0.949
23,G11U U69A,0.958
24,G11U U69G,0.968

row,Variant,self-cleavage
1,C12A A13C,0.199
2,C12A A13G,0.735
3,C12A A15C,0.274
4,C12A A15G,0.514
5,C12A A15U,0.106
6,C12A A16C,0.128
7,C12A A16G,0.385
8,C12A A23G,0.42
9,C12A A23U,0.742
10,C12A A40C,0.209
11,C12A A40G,0.437
12,C12A A40U,0.218
13,C12A A42C,0.413
14,C12A A42G,0.41
15,C12A A51G,0.805
16,C12A A52C,0.571
17,C12A A52G,0.788
18,C12A A52U,0.603
19,C12A A59C,0.347
20,C12A A59G,0.653
21,C12A A59U,0.343
22,C12A A60G,0.372
23,C12A A60U,0.257
24,C12A C18G,0.113

row,Variant,self-cleavage
1,C12A C18U,0.143
2,C12A C22A,0.144
3,C12A C22G,0.129
4,C12A C22U,0.111
5,C12A C24A,0.236
6,C12A C24G,0.138
7,C12A C24U,0.302
8,C12A C27A,0.145
9,C12A C27U,0.117
10,C12A C29G,0.105
11,C12A C29U,0.135
12,C12A C32A,0.402
13,C12A C32G,0.118
14,C12A C32U,0.79
15,C12A C33A,0.553
16,C12A C33G,0.395
17,C12A C34A,0.448
18,C12A C34G,0.495
19,C12A C35A,0.149
20,C12A C35U,0.624
21,C12A C39A,0.228
22,C12A C39G,0.346
23,C12A C39U,0.355
24,C12A C45A,0.579

row,Variant,self-cleavage
1,C12A C45G,0.614
2,C12A C54A,0.311
3,C12A C54G,0.392
4,C12A C57A,0.172
5,C12A C57G,0.212
6,C12A C57U,0.317
7,C12A C63G,0.354
8,C12A C66A,0.686
9,C12A C66G,0.561
10,C12A G14C,0.126
11,C12A G17A,0.187
12,C12A G17C,0.139
13,C12A G17U,0.0724
14,C12A G19C,0.125
15,C12A G25C,0.127
16,C12A G28C,0.164
17,C12A G28U,0.141
18,C12A G30A,0.322
19,C12A G30U,0.212
20,C12A G41C,0.191
21,C12A G41U,0.286
22,C12A G47A,0.875
